Test results from article PMC5750232, “RAD54 N-terminal domain is a DNA sensor that couples ATP hydrolysis with branch migration of Holliday junctions” (Nature Communications, 2018).

What was measured:
RAD54 1-142 52AA53 = molecular target: T1, RAD54 1-142 52AA53 (human, UniProt Q92698 1-142, R52A;K53A); experiment: EMSA; similar to non-mutated 1-142; 5 mM Mg2+, 2 mM ATP; 25 mM Tris-acetate pH 7.5, 5 mM Mg acetate, 100 ug/ml BSA, 2 mM DTT, 2 mM ATP, 10% glycerol, 4 C, 45 min; 30 nM PX junction; 6% native PAGE in 0.25x TBE; conditions: protein: recombinant; tags: Sumo-His, cleaved; partial X junction with one ssDNA arm, 4 strands
T1 sequence: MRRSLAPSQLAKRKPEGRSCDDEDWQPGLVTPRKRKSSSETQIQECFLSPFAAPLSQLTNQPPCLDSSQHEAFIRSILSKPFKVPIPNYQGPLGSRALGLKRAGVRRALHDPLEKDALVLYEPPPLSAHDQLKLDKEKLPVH

RAD54 1-142 T31E = molecular target: T2, RAD54 1-142 T31E (human, UniProt Q92698 1-142, T31E); experiment: EMSA; no significant effect of mutation; 5 mM Mg2+, 2 mM ATP; 25 mM Tris-acetate pH 7.5, 5 mM Mg acetate, 100 ug/ml BSA, 2 mM DTT, 2 mM ATP, 10% glycerol, 4 C, 45 min; 30 nM PX junction; 6% native PAGE in 0.25x TBE; conditions: protein: recombinant; tags: Sumo-His, cleaved; partial X junction with one ssDNA arm, 4 strands
T2 sequence: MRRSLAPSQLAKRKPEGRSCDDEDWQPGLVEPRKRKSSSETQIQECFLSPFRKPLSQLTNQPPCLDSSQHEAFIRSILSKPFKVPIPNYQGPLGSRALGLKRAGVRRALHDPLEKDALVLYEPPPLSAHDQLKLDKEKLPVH

B1: non-mobile PX junction (174/175/176/181) (structured_DNA)
DNA 1: GACGCTGCCGAATTCTACCAGTGCCTTGCTAGGACATCTTTGCCCACCTGCAGGTTCACCC
DNA 2: TGGGTGAACCTGCAGGTGGGCAAAGATGTCCTAGCAATGTAATCGTCAAGCTTTATGCCGTT
DNA 3: CAACGGCATAAAGCTTGACGATTACATTGCTAGGACATGCTGTCTAGAGGATCCGACTATCGA
DNA 4: TCGATAGTCGGATCCTCTAGACAGC
binding result (RAD54 1-142 52AA53): binds | binding result (RAD54 1-142 T31E): binds
